{
  "source": "the supplement of paper PMC10567573",
  "parents": {"B1": {"name": "CRYL1 (parent)", "chain": "RNALENIRKEMKLLEQAGSLKGSL"}},
  "data": [
    {"variants_of": "B1", "assay": "protein stability index of a GFP-peptide fusion (GPS, HEK-293T) (PSI 1-6); higher = more stable", "details": "c terminus: a fixed tail appended", "values": [
      {"variant": "RNALENIRKEYKLLEQAGSLKGSL", "protein stability index": 2.92},
      {"variant": "RNALENIRKEPKLLEQAGSLKGSL", "protein stability index": 4.49},
      {"variant": "RNALENIRKEMKLDEQAGSLKGSL", "protein stability index": 4.36},
      {"variant": "RNALENIRKEMKLVEQAGSLKGSL", "protein stability index": 3.85},
      {"variant": "RNALENIRKEMKLCEQAGSLKGSL", "protein stability index": 3.39},
      {"variant": "RNALENIRKEMKLYEQAGSLKGSL", "protein stability index": 3.86},
      {"variant": "RNALENIRKEMKLIEQAGSLKGSL", "protein stability index": 3.47},
      {"variant": "RNALENIRKEMKLMEQAGSLKGSL", "protein stability index": 2.68},
      {"variant": "RNALENIRKEMKLSEQAGSLKGSL", "protein stability index": 3.77},
      {"variant": "RNALENIRKEMKLAEQAGSLKGSL", "protein stability index": 3.77},
      {"variant": "RNALENIRKEMKLEEQAGSLKGSL", "protein stability index": 4.88},
      {"variant": "RNALENIRKEMKLREQAGSLKGSL", "protein stability index": 3.93},
      {"variant": "RNALENIRKEMKLTEQAGSLKGSL", "protein stability index": 3.79},
      {"variant": "RNALENIRKEMKLQEQAGSLKGSL", "protein stability index": 4.18},
      {"variant": "RNALENIRKEMKLFEQAGSLKGSL", "protein stability index": 3.19},
      {"variant": "RNALENIRKEMKLWEQAGSLKGSL", "protein stability index": 3.17},
      {"variant": "RNALENIRKEMKLPEQAGSLKGSL", "protein stability index": 3.93},
      {"variant": "RNALENIRKEMKLKEQAGSLKGSL", "protein stability index": 4.03},
      {"variant": "RNALENIRKEMKLNEQAGSLKGSL", "protein stability index": 4.11},
      {"variant": "RNALENIRKEMKLLEQASSLKGSL", "protein stability index": 3.41},
      {"variant": "RNALENIRKEMKLLEQAKSLKGSL", "protein stability index": 3.52},
      {"variant": "RNALENIRKEMKLLEQAPSLKGSL", "protein stability index": 4.33},
      {"variant": "RNALENIRKEMKLLEQAHSLKGSL", "protein stability index": 3.08},
      {"variant": "RNALENIRKEMKLLEQAFSLKGSL", "protein stability index": 2.13},
      {"variant": "RNALENIRKEMKLLEQAESLKGSL", "protein stability index": 3.58},
      {"variant": "RNALENIRKEMKLLEQATSLKGSL", "protein stability index": 3.39},
      {"variant": "RNALENIRKEMKLLEQAQSLKGSL", "protein stability index": 3.48},
      {"variant": "RNALENIRKEMKLLEQANSLKGSL", "protein stability index": 3.84},
      {"variant": "RNALENIRKEMKLLEQARSLKGSL", "protein stability index": 3.23},
      {"variant": "RNALENIRKEMKLLEQALSLKGSL", "protein stability index": 1.83},
      {"variant": "RNALENIRKEMKLLEQADSLKGSL", "protein stability index": 3.64},
      {"variant": "RNALENIRKEMKLLEQAYSLKGSL", "protein stability index": 2.12},
      {"variant": "RNALENIRKEMKLLEQAASLKGSL", "protein stability index": 4},
      {"variant": "RNALENIRKEMKLLEQAMSLKGSL", "protein stability index": 2.12},
      {"variant": "RNALENIRKEMKLLEQAWSLKGSL", "protein stability index": 2.37},
      {"variant": "RNALENIRKEMKLLEQAISLKGSL", "protein stability index": 1.98},
      {"variant": "RNALENIRKEMKLLEQAVSLKGSL", "protein stability index": 2.8},
      {"variant": "RNALENIRKEMKLLEIAGSLKGSL", "protein stability index": 2.76},
      {"variant": "RNALENIRKEMKLLEPAGSLKGSL", "protein stability index": 3.3},
      {"variant": "RNALENIRKEMKLLEDAGSLKGSL", "protein stability index": 4.1},
      {"variant": "RNALENIRKEMKLLEFAGSLKGSL", "protein stability index": 2.71},
      {"variant": "RNALENIRKEMKLLEWAGSLKGSL", "protein stability index": 2.11},
      {"variant": "RNALENIRKEMKLLEHAGSLKGSL", "protein stability index": 3.25},
      {"variant": "RNALENIRKEMKLLENAGSLKGSL", "protein stability index": 3.75},
      {"variant": "RNALENIRKEMKLLEYAGSLKGSL", "protein stability index": 2.37},
      {"variant": "RNALENIRKEMKLLESAGSLKGSL", "protein stability index": 2.62},
      {"variant": "RNALENIRKEMKLLEVAGSLKGSL", "protein stability index": 2.89},
      {"variant": "RNALENIRKEMKLLELAGSLKGSL", "protein stability index": 2.06},
      {"variant": "RNALENIRKEMKLLEEAGSLKGSL", "protein stability index": 3.75},
      {"variant": "RNALENIRKEMKLLEKAGSLKGSL", "protein stability index": 3.02},
      {"variant": "RNALENIRKEMKLLERAGSLKGSL", "protein stability index": 2.86},
      {"variant": "RNALENIRKEMKLLEAAGSLKGSL", "protein stability index": 2.93},
      {"variant": "RNALENIRKEMKLLEGAGSLKGSL", "protein stability index": 3.7},
      {"variant": "RNALENIRKEMKLLEMAGSLKGSL", "protein stability index": 2.76},
      {"variant": "RNALENIRKEMKLLETAGSLKGSL", "protein stability index": 3.01},
      {"variant": "RNALENIRKEMKLLECAGSLKGSL", "protein stability index": 3.35},
      {"variant": "RNALENIRKEMKLLEQEGSLKGSL", "protein stability index": 3.84},
      {"variant": "RNALENIRKEMKLLEQKGSLKGSL", "protein stability index": 3.51},
      {"variant": "RNALENIRKEMKLLEQRGSLKGSL", "protein stability index": 3.38},
      {"variant": "RNALENIRKEMKLLEQIGSLKGSL", "protein stability index": 2.71},
      {"variant": "RNALENIRKEMKLLEQWGSLKGSL", "protein stability index": 2.33},
      {"variant": "RNALENIRKEMKLLEQVGSLKGSL", "protein stability index": 3.58},
      {"variant": "RNALENIRKEMKLLEQQGSLKGSL", "protein stability index": 4.01},
      {"variant": "RNALENIRKEMKLLEQGGSLKGSL", "protein stability index": 3.4},
      {"variant": "RNALENIRKEMKLLEQHGSLKGSL", "protein stability index": 3.06},
      {"variant": "RNALENIRKEMKLLEQMGSLKGSL", "protein stability index": 3.32},
      {"variant": "RNALENIRKEMKLLEQTGSLKGSL", "protein stability index": 3.4},
      {"variant": "RNALENIRKEMKLLEQDGSLKGSL", "protein stability index": 3.97},
      {"variant": "RNALENIRKEMKLLEQYGSLKGSL", "protein stability index": 2.32},
      {"variant": "RNALENIRKEMKLLEQCGSLKGSL", "protein stability index": 2.48},
      {"variant": "RNALENIRKEMKLLEQLGSLKGSL", "protein stability index": 3.18},
      {"variant": "RNALENIRKEMKLLEQSGSLKGSL", "protein stability index": 3.72},
      {"variant": "RNALENIRKEMKLLEQPGSLKGSL", "protein stability index": 3.5},
      {"variant": "RNALENIRKEMKLLEQNGSLKGSL", "protein stability index": 3.62},
      {"variant": "RNALENIRKEMKLLEQFGSLKGSL", "protein stability index": 2.22},
      {"variant": "RNALENIRKEMKLLQQAGSLKGSL", "protein stability index": 3.57},
      {"variant": "RNALENIRKEMKLLVQAGSLKGSL", "protein stability index": 2.39},
      {"variant": "RNALENIRKEMKLLYQAGSLKGSL", "protein stability index": 2.21},
      {"variant": "RNALENIRKEMKLLHQAGSLKGSL", "protein stability index": 2.77},
      {"variant": "RNALENIRKEMKLLWQAGSLKGSL", "protein stability index": 1.49},
      {"variant": "RNALENIRKEMKLLGQAGSLKGSL", "protein stability index": 3.05},
      {"variant": "RNALENIRKEMKLLPQAGSLKGSL", "protein stability index": 3.37},
      {"variant": "RNALENIRKEMKLLCQAGSLKGSL", "protein stability index": 3.2},
      {"variant": "RNALENIRKEMKLLKQAGSLKGSL", "protein stability index": 2.48},
      {"variant": "RNALENIRKEMKLLDQAGSLKGSL", "protein stability index": 3.63},
      {"variant": "RNALENIRKEMKLLMQAGSLKGSL", "protein stability index": 2.87},
      {"variant": "RNALENIRKEMKLLFQAGSLKGSL", "protein stability index": 2.9},
      {"variant": "RNALENIRKEMKLLNQAGSLKGSL", "protein stability index": 3.16},
      {"variant": "RNALENIRKEMKLLSQAGSLKGSL", "protein stability index": 2.58},
      {"variant": "RNALENIRKEMKLLIQAGSLKGSL", "protein stability index": 1.71},
      {"variant": "RNALENIRKEMKLLRQAGSLKGSL", "protein stability index": 3.63},
      {"variant": "RNALENIRKEMKLLTQAGSLKGSL", "protein stability index": 3.08},
      {"variant": "RNALENIRKEMKLLAQAGSLKGSL", "protein stability index": 2.17},
      {"variant": "RNALENIRKEMKLLLQAGSLKGSL", "protein stability index": 2.16}
    ]}
  ]
}
